These results are taken from US20260232732A1 (FUNDACI INSTITUT DE RECERCA CONTRA LA LEUC MIA JOSEP …, published 2026).

For experiment [1], the target named is T1, biotin-peptide TSSMEDYVNF (human).
T1 peptide: Biotin-TSSMEDYVNF
The experiment is described as follows: ELISA biotin-peptide; scFv 10 ug/mL; repI. How it is done: (§1) The peptides were synthesized naked or with a N-terminal Biotin modification with a purity of >98%. All four scFvs were verified by ELISA that can be detected with anti-His antibodies. ELISA was performed for scFv-peptide binding validation. Briefly, naked peptides were coated (50 μg/mL) in 0.58M carbonate-bicarbonate buffer pH9.5, 100 μL/well, 4° C. O/N. Then after blocking (3% BSA-PBS, 300 μL/well 37° C. 1.5 h) and washing (PBS+Tween-20 0.05% v/v (0.05% PBST), wells were incubated with each purified scFv antibody at concentration of 1 μg/mL in PBS at 37° C. 1 h. After washing (0.05% PBST), wells were incubated with secondary antibodies (goat anti-His IgG-HRP) in PBS, 37° C., 30 min. After washing, and incubation with TMB substrate, reactions were stopped with 2M HCl and reading was quantified at OD450.
(§2) ELISA with biotin-conjugated peptides (5 μg/mL) was performed very similar to described above with minor modifications.
(§3) A full curve ELISA was performed for each positive scFv/biotin-peptide pair in order to confirm previous results. Tables 15-17 show ELISA results of the dose-dependent full curve for each positive peptide with scFv “CCR9_HUM”, “Comp-2” and “Comp-3”, respectively.
For orientation: ELISA stands for enzyme-linked immunosorbent assay.

Experiment [2] addresses T2, biotin-peptide MEDYVNFNFT (human).
T2 peptide: Biotin-MEDYVNFNFT
Put plainly: ELISA biotin-peptide; scFv 10 ug/mL; repI. The protocol: as §1, §2, §3

In experiment [3] the target is T3, biotin-peptide SMEDYVNFNF (human).
T3 peptide: Biotin-SMEDYVNFNF
Put plainly: ELISA biotin-peptide; scFv 10 ug/mL; repI. How it is done: as §1, §2, §3

Experiment [4] deals with T4, biotin-peptide SSMEDYVNFN (human).
T4 peptide: Biotin-SSMEDYVNFN
Put plainly: ELISA biotin-peptide; scFv 10 ug/mL; repI. The protocol: as §1, §2, §3

In experiment [5] the target is T1, biotin-peptide TSSMEDYVNF
The experiment is described as follows: ELISA biotin-peptide; scFv 0.3125 ug/mL; repI. How it is done:
as §1, §2, §3

Experiment [6] deals with T2, biotin-peptide MEDYVNFNFT
The experiment is described as follows: ELISA biotin-peptide; scFv 0.3125 ug/mL; repI. How it is done: as §1, §2, §3

The target of experiment [7] is T3, biotin-peptide SMEDYVNFNF
Put plainly: ELISA biotin-peptide; scFv 0.3125 ug/mL; repI. The protocol:
as §1, §2, §3

Experiment [8] deals with T4, biotin-peptide SSMEDYVNFN
Put plainly: ELISA biotin-peptide; scFv 0.3125 ug/mL; repI. The protocol: as §1, §2, §3

In experiment [9] the target is T1, biotin-peptide TSSMEDYVNF
The experiment is described as follows: ELISA biotin-peptide; scFv 2.5 ug/mL; repII. The protocol:
as §1, §2, §3

Experiment [10] addresses T2, biotin-peptide MEDYVNFNFT
The experiment is described as follows: ELISA biotin-peptide; scFv 2.5 ug/mL; repII. How it is done:
as §1, §2, §3

Experiment [11] has as its target T3, biotin-peptide SMEDYVNFNF
The experiment is described as follows: ELISA biotin-peptide; scFv 2.5 ug/mL; repII. The protocol: as §1, §2, §3

For experiment [12], the target named is T4, biotin-peptide SSMEDYVNFN
Put plainly: ELISA biotin-peptide; scFv 2.5 ug/mL; repII. The protocol: as §1, §2, §3

In experiment [13] the target is T5, Peptide 4, non-conjugated (SMEDYVNFNF-C) (human).
T5 construct: With the extra C-terminal Cys
T5 peptide: SMEDYVNFNFC
Put plainly: ELISA; Ab 0.0625 ug/mL; repII. How it is done: (§4) In brief, plates with each non-conjugated peptide (50 μg/mL) or BSA-conjugated peptide (5 μg/mL) were coated in 0.58M carbonate-bicarbonate buffer pH9.5, 100 μL/well, at 4° C. […] After washing, wells were incubated with the 3, 3′,5,5′-Tetramethylbenzidine (TMB) HRP substrate and reactions were stopped with 2M HCl and OD450 was recorded.

Experiment [14] deals with T6, Peptide 2-BSA (GSESTSSMED-C conjugated to BSA) (human).
T6 peptide: GSESTSSMEDC(BSA)
The experiment is described as follows: ELISA; Ab 0.0625 ug/mL; repII. How it is done:
as §4

The target of experiment [15] is T7, Peptide 2, non-conjugated (GSESTSSMED-C) (human).
T7 construct: With the extra C-terminal Cys
T7 peptide: GSESTSSMEDC
Put plainly: ELISA; Ab 0.0625 ug/mL; repII. The protocol: as §4

For experiment [16], the target named is T8, BSA (negative control coating) (bovine, UniProt P02769 25-607).
T8 construct: also called Negative control BSA
T8 sequence (P02769 25-607 limits assumed): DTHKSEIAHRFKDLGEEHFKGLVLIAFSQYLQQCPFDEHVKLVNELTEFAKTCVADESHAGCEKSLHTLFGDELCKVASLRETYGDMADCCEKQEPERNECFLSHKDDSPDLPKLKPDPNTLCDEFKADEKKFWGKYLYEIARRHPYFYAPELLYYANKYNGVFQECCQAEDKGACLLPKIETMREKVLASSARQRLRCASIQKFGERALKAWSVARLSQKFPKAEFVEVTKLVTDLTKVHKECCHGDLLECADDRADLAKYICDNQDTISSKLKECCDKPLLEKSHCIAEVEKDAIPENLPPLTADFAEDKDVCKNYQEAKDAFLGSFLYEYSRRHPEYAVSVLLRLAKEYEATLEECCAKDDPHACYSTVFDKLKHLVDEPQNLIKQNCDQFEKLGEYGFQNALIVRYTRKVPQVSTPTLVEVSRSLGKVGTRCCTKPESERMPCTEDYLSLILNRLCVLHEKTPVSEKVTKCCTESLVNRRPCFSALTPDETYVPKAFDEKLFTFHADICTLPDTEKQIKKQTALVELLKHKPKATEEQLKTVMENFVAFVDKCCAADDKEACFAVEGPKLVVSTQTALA
The experiment is described as follows: ELISA; Ab 0.0625 ug/mL; repII. How it is done:
as §4

In experiment [17] the target is T9, antigen peptide-BSA (immunisation peptide #1 MADDYGSESTSSMEDYVNFNF-C conjugated to BSA) (human, extra C-terminal Cys conjugated to BSA).
T9 construct: also called Positive control antigen peptide-BSA; MADDY peptide
T9 peptide: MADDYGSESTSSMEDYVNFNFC
The experiment is described as follows: ELISA; Ab 0.0625 ug/mL; repII. How it is done:
as §4

Experiment [18] concerns the target T10, Peptide 1-BSA (MADDYGSEST-C conjugated to BSA) (human).
T10 peptide: MADDYGSESTC(BSA)
Put plainly: ELISA; Ab 0.0625 ug/mL; repII. The protocol:
as §4

The target in experiment [19] is T11, Peptide 1, non-conjugated (MADDYGSEST-C) (human).
T11 construct: With the extra C-terminal Cys
T11 peptide: MADDYGSESTC
The experiment is described as follows: ELISA; Ab 0.0625 ug/mL; repII. How it is done: as §4

In experiment [20] the target is T6, Peptide 2-BSA (GSESTSSMED-C conjugated …). Put plainly: ELISA, BSA-conjugated peptide coated. The protocol: as §4
The target in experiment [21] is T10, Peptide 1-BSA (MADDYGSEST-C conjugated …). The experiment is described as follows: ELISA, BSA-conjugated peptide coated. How it is done: as §4
The target in experiment [22] is T7, Peptide 2, non-conjugated (GSESTSSMED-C). The experiment is described as follows: ELISA; Ab 0.01563 ug/mL; repI. The protocol:
as §4

The target in experiment [23] is T8, BSA (negative control coating). Put plainly: ELISA; Ab 0.01563 ug/mL; repI. The protocol: as §4
The target in experiment [24] is T12, Peptide 3-BSA (SSMEDYVNFN-C conjugated to BSA) (human).
T12 peptide: SSMEDYVNFNC(BSA)
Put plainly: ELISA; Ab 0.01563 ug/mL; repI. The protocol: as §4

The target of experiment [25] is T10, Peptide 1-BSA (MADDYGSEST-C conjugated …). The experiment is described as follows: ELISA; Ab 0.01563 ug/mL; repI. The protocol:
as §4

Experiment [26] has as its target T11, Peptide 1, non-conjugated (MADDYGSEST-C). The experiment is described as follows: ELISA; Ab 0.01563 ug/mL; repI. The protocol:
as §4

Where no end group is shown, it is not given here. The star is where a group is joined. Biotin = O=C1N[C@H]2[C@H](CS[C@H]2CCCCC(=O)*)N1

B1: CCR9_HUM2 scFv (humanized anti-CCR9 scFv, SEQ ID NO: 17 with C-terminal 6xHis tag) (scFv)
scFv: QVQLVQSGAEVKKPGASVKVSCTASGYSFTDYIIYWVKQAHGQSLEWMGYIDPNNYNTRYSQKFQGKVTITVDKSSTSAYMELNSLTSDDTAVYYCARDVYWGQGTTVTVSSGGGGSGGGGSGGGGSGGGGSDVVMTQTPLSLSVTPGQPASISCRSSQSLVHSNGKTYLQWYLQKPGQSPKLLIYKVSNRFSGVPDRFSGSGSGTDFTLKISRVEAEDVGVYFCAQSTHVWTFGGGTKVEIKRAHHHHHH
For the molecule B1, the OD450 in experiment [1] came to 1.46 OD; in experiment [2], 1.72 OD; in experiment [3], 1.79 OD; in [4], 1.9 OD; in [5], 0.46 OD; in experiment [6], 1.47 OD. Further, the OD450 is 1.63 OD in [7]; 1.69 OD in [8]; 1.4 OD in experiment [9]; 1.64 OD in [10]; 1.77 OD in experiment [11]; 1.78 OD in [12].

B2: anti-CCR9 antibody clone 115 (murine, from hybridoma #115) (antibody, V domains shown)
VH: QVQLKQSGPELVKPGTSVRVSCTASGYSFTDYIIYWVKQSHGRSLEWIGYIDPNNYNTRYSQKFKGKATLTVDKSSTSAFMHLNSLTSDDSAVYYCARDVYWGQGTTLTVSS
VL: DVVMTQTPLSLTVSLGDQASISCRSSQSLVHSNGKTYLQWYLQKPGQSPKLLIYKVSNRFSGVPDRFSGSGSGTDFTLKISRVEAEDLGVYFCAQSTHVWTFGGGTKLEIKR
notes: Mouse IgG1
Consider B2, for which the OD450 in [13] was 1.19 OD; in experiment [14], 0.01 OD; in [15], 0.01 OD; in experiment [16], 0.01 OD; in [17], 2.08 OD; in experiment [18] it was 0.01 OD. Also, the OD450 came out at 0.01 OD in [19]; 0.01 OD in [22]; 0.01 OD in [23]; 1.33 OD in experiment [24]; 0.01 OD in experiment [25]; 0.01 OD in [26]. Besides, the binding result in [20] and in experiment [21] was “no binding (tested: 1 ug/mL)” throughout.
